Reference: patent publication US20260256879A1, “COMBINATION THERAPY WITH MEK INHIBITORS FOR THE TREATMENT OF CANCER” (FUNDACIÓ PRIVADA INSTITUT D'INVESTIGACIÓ ONCOLÒGICA DE VALL …, priority 2023, published 2026)

Tested on: SkMel28 cells
Test: AlamarBlue cell viability, 5 days of treatment, alone or in combination; synergy by SynergyFinder 3.0 (ZIP)
Format: cell-based, human
Details: SkMel28, 5 days, FIG. 1A
Method: Omomyc in Combination with MEK Inhibitors Acts Synergistically in Decreasing the Viability of Melanoma Cancer Cells Two human melanoma cell lines with mutations in BRAF (BRAF^V600E) (SkMel28 and SkMel37) were used. Cells were plated in 96 well plates and treated on the following day with increasing concentrations of Trametinib and Omomyc, alone or in combination. After 5 days of treatment, media was removed and AlamarBlue™ Cell Viability Reagent was added to each well, incubated for 3 hours until metabolized, and fluorescence was read with a microplate reader using an excitation between 530-560 and an emission at 590 nm.
Synergy was evaluated using SynergyFinder 3.0 web application derived from Ianevsky A et al. Nucleic Acids Res. 2022; 50(W1):W739-W743.
Synergy scores can be interpreted as the average excess response due to drug interactions. Synergy scores close to 0 give limited confidence in synergy or antagonism. So, when the synergy scores are: less than −10, the interaction between two drugs is likely to be antagonistic. From −10 to 10, the interaction between two drugs is likely to be additive. Greater than 10, the interaction between two drugs is likely to be synergistic.

B1: Omomyc: Mutated bHLHZip domain of Myc (E61T, E68I, R74Q, R75N); tested polypeptide is SEQ ID NO: 4, N-terminal methionine, produced in E. coli (protein)
chain: MTEENVKRRTHNVLERQRRNELKRSFFALRDQIPELENNEKAPKVVILKKATAYILSVQAETQKLISEIDLLRKQNEQLKHKLEQLRNSCA
modifications: N-terminal methionine
B1 was tested, and the “effect of single agent on viability of the cells” value was “reduces the viability”.
